Reference: article PMC4379586

Experiments:
[1] = system: MDM2 C-terminal RING domain (GST fusion) (human); assay: intrinsic protein fluorescence titration; conditions: ITC: 10 mM Hepes pH 7.2, 150 mM NaCl, temperature not stated; fluorescence titration (ex 280 nm, em 335 nm): buffer and temperature not stated
[2] = system: MDM2 C-terminal RING domain (GST fusion) (human); assay: ITC; conditions: ITC: 10 mM Hepes pH 7.2, 150 mM NaCl, temperature not stated; fluorescence titration (ex 280 nm, em 335 nm): buffer and temperature not stated

XIAP IRES RNA (small, RNP core binding site)
Kd [1]: 680 nM | Kd [2]: 700 nM
